The results in this text go back to patent JP2024517985A (dated 2024).

Broadly, the Kd is the constant that tells how readily two partners part at equilibrium. High values mean weaker binding, low ones tighter binding. In general, EC50 refers to the midpoint of the concentration-response curve. Read a low EC50 as higher potency in that assay.

Experiment [1] deals with T1, CD300c抗原(11832-H08H、Sino Biological) (UniProt Q08708 21-183).
T1 construct: Bought recombinant protein; also called CD300c; CD300c antigen
T1 sequence (looked up): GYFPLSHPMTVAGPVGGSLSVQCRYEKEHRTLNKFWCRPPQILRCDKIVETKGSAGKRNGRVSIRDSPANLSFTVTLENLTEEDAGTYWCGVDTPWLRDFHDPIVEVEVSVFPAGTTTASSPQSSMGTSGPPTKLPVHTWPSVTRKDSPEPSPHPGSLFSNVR
The experiment is described as follows: SPR, CD300c immobilised on CM5 chip, CL7 as analyte 0-6.25 ug/ml. A general note: In SPR one partner is held on a chip, and binding of the other changes the refractive index at the surface.

Experiment [2] addresses T2, 293T細胞及びTHP-1細胞の表面で過剰発現されたCD300c (UniProt Q08708 21-224, limits assumed).
T2 construct: whole, on cells; Expression construct not described; also called CD300c overexpressed on 293T cells; CD300c overexpressed on THP-1 cells
T2 sequence (looked up): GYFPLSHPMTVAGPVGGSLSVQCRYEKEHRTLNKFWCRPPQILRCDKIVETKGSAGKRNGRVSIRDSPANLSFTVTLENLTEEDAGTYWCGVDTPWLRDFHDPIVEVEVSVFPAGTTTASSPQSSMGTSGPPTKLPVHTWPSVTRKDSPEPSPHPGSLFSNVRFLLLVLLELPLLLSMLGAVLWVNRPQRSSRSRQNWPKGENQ
The experiment is described as follows: flow cytometry (MFI) on 293T cells overexpressing CD300c, FITC anti-human IgG (H+L). (In general: A flow cytometer gives signals particle by particle.)

The target in experiment [3] is T2, 293T細胞及びTHP-1細胞の表面で過剰発現されたCD300c. The experiment can be described thus: flow cytometry (MFI) on THP-1 cells overexpressing CD300c, FITC anti-human IgG (H+L).
The target of experiment [4] is T1, CD300c抗原(11832-H08H、Sino Biological). The experiment can be described thus: SPR, CD300c immobilised on CM5 chip, CL7 as analyte 0-6.25 ug/ml (rounded form of the same KD).

B1: 抗-CD300cモノクローナル抗体 CL7 (antibody, V domains shown)
VH: EVQLLESGGGLVQPGGSLRLSCAASGFTFSRYAMSWVRQAPGKGLEWVSAISGSGGSTYYADSVKGRFTISRDNSKNTLYLQMNSLRAEDTAVYYCARSSQGIFDIWGQGTLVTVSS
VL: QSVLTQPPSASGTPGQRVTISCSGNNIGTRRVHWYQQLPDTAPKLLIYSKNNRPSGVPDRFSGSKSGTSASLAISGLRSEDEADYYCAAWDDSLSGPVFGGGTKLTVL
As for B1, the Kd in experiment [1] and in experiment [4] was 0.52 nM in each case. The EC50 was determined as 2.7 nM in experiment [2] and 2.6 nM in experiment [3].
